Columns and labels:
Assay in all cases: EMSA; EMSA: 20 mM Tris-HCl pH 7.5, 50 mM NaCl, 10 mM DTT, 1 mM EDTA, 5% glycerol, 200 ng dI/dC, 200 ng each protein in 20 ul, 4 C, 30 min; 8% PAGE, 1x TBE, 4 C
Isl1D4 = target: T1, Isl1D4 (mouse, UniProt P61372 146-349); settings: protein: recombinant; tags: His (C-terminal); (radiolabel, Klenow fill-in); 5' overhang 1 nt at both ends before fill-in
T1 sequence: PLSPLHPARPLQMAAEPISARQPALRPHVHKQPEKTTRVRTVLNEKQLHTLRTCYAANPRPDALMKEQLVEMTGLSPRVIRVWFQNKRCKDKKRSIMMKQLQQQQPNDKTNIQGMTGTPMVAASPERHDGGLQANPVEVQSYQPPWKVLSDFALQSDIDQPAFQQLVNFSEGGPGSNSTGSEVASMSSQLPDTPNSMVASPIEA

Pou4f2D5 = target: T2, Pou4f2D5 (mouse, UniProt Q63934 125-411); settings: protein: recombinant; tags: His (C-terminal); (radiolabel, Klenow fill-in); 5' overhang 1 nt at both ends before fill-in
T2 sequence: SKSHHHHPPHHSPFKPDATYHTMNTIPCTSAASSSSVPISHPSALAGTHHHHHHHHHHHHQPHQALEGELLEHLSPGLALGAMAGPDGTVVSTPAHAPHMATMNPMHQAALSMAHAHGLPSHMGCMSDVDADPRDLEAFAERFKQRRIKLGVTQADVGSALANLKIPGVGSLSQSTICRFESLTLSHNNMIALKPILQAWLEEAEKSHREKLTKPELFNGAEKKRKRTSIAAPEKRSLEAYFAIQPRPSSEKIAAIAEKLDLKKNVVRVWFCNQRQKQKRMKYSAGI

Isl1 = target: T3, Isl1 (mouse, UniProt P61372 1-349); settings: protein: recombinant; tags: His (C-terminal, pET-28a); (radiolabel, Klenow fill-in); 5' overhang 1 nt at both ends before fill-in
T3 sequence: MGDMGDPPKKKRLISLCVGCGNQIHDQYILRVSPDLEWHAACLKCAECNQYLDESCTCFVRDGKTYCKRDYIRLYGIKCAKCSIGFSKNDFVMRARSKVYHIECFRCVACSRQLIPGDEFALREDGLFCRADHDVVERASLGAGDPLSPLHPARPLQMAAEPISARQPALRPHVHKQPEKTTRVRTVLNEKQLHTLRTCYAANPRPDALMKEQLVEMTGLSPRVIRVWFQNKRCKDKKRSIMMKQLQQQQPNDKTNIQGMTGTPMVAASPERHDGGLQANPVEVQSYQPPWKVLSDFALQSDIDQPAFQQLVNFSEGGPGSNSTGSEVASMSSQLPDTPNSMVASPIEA

Pou4f2D3 = target: T4, Pou4f2D3 (mouse, UniProt Q63934 240-411); settings: protein: recombinant; tags: His (C-terminal); (radiolabel, Klenow fill-in); 5' overhang 1 nt at both ends before fill-in
T4 sequence: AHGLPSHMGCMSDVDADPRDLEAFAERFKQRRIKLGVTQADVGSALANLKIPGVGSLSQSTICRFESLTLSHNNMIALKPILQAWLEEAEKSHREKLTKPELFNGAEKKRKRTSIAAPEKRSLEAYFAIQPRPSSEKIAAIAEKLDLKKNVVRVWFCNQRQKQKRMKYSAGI

Isl1D3 = target: T5, Isl1D3 (mouse, UniProt P61372 170-349); settings: protein: recombinant; tags: His (C-terminal); (radiolabel, Klenow fill-in); 5' overhang 1 nt at both ends before fill-in
T5 sequence: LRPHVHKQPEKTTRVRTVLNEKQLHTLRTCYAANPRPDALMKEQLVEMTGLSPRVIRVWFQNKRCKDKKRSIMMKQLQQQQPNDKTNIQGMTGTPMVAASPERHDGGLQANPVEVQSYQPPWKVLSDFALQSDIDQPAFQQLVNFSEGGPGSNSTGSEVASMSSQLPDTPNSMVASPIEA

Measured: binding result

B1: CBRN3(W) (dsDNA)
DNA 1: GATCTCTCCTGCATAATTAATTACCCCCGGAT
DNA 2: GATCCGGGGGTAATTAATTATGCAGGAGAGAT
binds: all assays above

B2: SBRN3(W) (dsDNA)
DNA 1: GCACACGACCCAATGAATTAATAACCGGGCTG
DNA 2: GCAGCCCGGTTATTAATTCATTGGGTCGTGTG
binds: all assays above

From article PMC3958441, “Isl1 and Pou4f2 Form a Complex to Regulate Target Genes in Developing Retinal Ganglion Cells” (PLoS ONE, 2014)
